Experimental data: the nanobody polyreactivity screen of Harvey et al. (2022)

Assay: yeast display, Sf9 membrane polyspecificity reagent, FACS + sequencing; frameworks hold sequencing errors
Outline: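 After 36–48 hours of galactose induction, yeast (Saccharomyces cerevisiae BJ5465) displaying a synthetic nanobody library were stained at 4 °C for 1 hour with 10% biotinylated, detergent-solubilized Sf9 membrane reagent. Streptavidin microbeads enriched the stained cells before FACS sorting into low and high (top ~1%) gates on anti-HA and streptavidin fluorescence. Each clone's polyreactivity label reflects its gate of origin.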

Row | Sequence | polyreactivity (PSR sort gate)
1 | QVHLQESGGGLVQAGGSLRLSCAASGTIFASQHMGWYRQAPGKERELVASIAKGGTTYYADSVKGRFTISRGNAKNTEYLQMNRLKPEDTAVYYCAARGWGYRRTYVYAWYDYWGQGTQVTVSS | high polyreactivity
2 | QVHLQESGGGMVQAGGSLRLSCAESGNIFLGDTMGWYRQPPGKEREFVAGIARGGNPYYADSLKGRFTISRNNAKNTVYLQKNSLKPEDTAVHYCAFLRSHASDYIYWGQGTQVTVSS | low polyreactivity
3 | QVHLVDSGGGLVQAGGSLRFSCAASGSIFGWYAMGWYRQAPGTERELVDSIAVTAGSTYYADSVKWRFPISRDKAKNTGYLQLNRLKPEDTALYSCAADDYSADAVQRFYYWGQGSQVTVSS | low polyreactivity
4 | QVHLVDSGGGLVQAGGSLRLSCAASGFIFSKYAMGWYRQAPGKERELVAAISWNGGSTYYADSVKGRFTISRDNAKNTVYLQMNSLKPEDTAVYYCNARGRYRKSERRAFDYWGQGTQVTVSS | high polyreactivity
5 | QVHLVDSGGGLVQAGGSLRLSCAAYGSTFHPYAMGWYRQAPGKERELVADITSSGSTHYADSVKGRFTISRDNAKNTVYLQMNSLKPEDTAVYYCAAGIPWASDSGDPSFEYWGQGTEVTVSS | low polyreactivity
6 | QVHLVDSGGGLVQAGGSLRLSSAASGRIFGHYALGGYRQAPGKPRELVAAIRYSAGRTYYAGSVKGRFTISRDNAKNSVNLQMNSLKPEDTSVYYCAKTCRYLTGGGDYWGQGTQVTVSS | high polyreactivity
7 | QVHLVDSGGGLVQAGGSLSLRCAASRRSFVPYAMGWYSQGPGKEREFLADITWSTCTSTYYADSEKGRFTISRDNAKNTVYLHMNSLKPEDTAVYYCAVDIWWPNWYYIYWGQGTQVTLSS | low polyreactivity
8 | QVHLVDSGGGVVVAGGRLRLSCAASVFTFDRNAMGWYRHARGKERALVAAISSSGGRTYYADSVKGRFTISRDNAKNTFYLQMNSLKPEDTAVYYCNAVPSARTQPYNGWGQGSQVTVSS | high polyreactivity
9 | QVHLVDSRGGLVQAGGSLRLSCAASGRISVFYTMGWYRQEPGKEREMVATITTSGGFTYYADSVKGRFTNSRDNAKNTVYLLMNSLKPEDTAVYYCAAVLGYRFYEYYFWGQGTQVTVSS | low polyreactivity
10 | QVHLVEAGGGLVQAGGSLRYSCAASGYTFKLYAMGWYRQAPGKESELVAAITSGGSTSFADSVKGRFTISRDNAKNTVYLQMNSLKPEDTAVYYCAKRYSSYRAWYRNVGYYYWGLGTQVTVSS | high polyreactivity
11 | QVHLVESAAGLVQAGGSLRLSCAASGSTFIGNAMVWYRQAPGKERELVAAITRSGGTTYYADSVKGRFTISRDNAKNTVYLQMNSLKPEDTAVYYCNKTHFFGYDSWGQGTQVTVSS | low polyreactivity
12 | QVHLVESAAGLVQEGGSLRVSCAASGRIFDIYAMGGYRQSTGKERELVAAITLRGGTTYADSVKGRFTISRDNAKNSVYLQMNSLKPEDTAVYYCARYHWYYRVSKSESWGQGTQVTVSS | high polyreactivity
13 | QVHLVESCGGLVQAGGSLRLSCAASGNTFVYNDMGWYRQAPGKERELVDDIRYSGSTYYADSVKGRFTISRDNAKNTVYLQMNSLKPEDTAVYYCAKAYYVLSWMGYWGQGTQVTVSS | low polyreactivity
14 | QVHLVESGGAFVQAGGSLRLSCAASGRTFGYKAMGWYRQAPVNERELVAAITAGGSTNYADSVKGRFTISRDNAKKTVELQMNRLKPEDTAVYDSAARTYYVPYYYWGQGTQVTVSS | high polyreactivity
15 | QVHLVESGGCLVQAGGSLRLICAASGRIFDGNTMGWYRQEPGKERELVAAISGVGSTDYADSVKGRYTISRDNAKNTVYFQINSLKPEDTAVYYCAATTGPVPLKGDYWGQGTQVTVSS | low polyreactivity
16 | QVHLVESGGCLVQSGGSLRLSCAASGSTFPSYAKGWYRQAPGKERELVAAINSGGGTNYADSVKGRFTISRDNAKNTVYLQMNILKPEDTAVYYCAADVWKLYAYWGQGTQVTVSS | low polyreactivity
17 | QVHLVESGGGIVQAGGSLRLSCAASVRTFQYYAMGWYRKAPGKEREFVAAITRTGARTYYADSVKGRFTISRDNAKNTVYLQMNSLKPEDTAVYYCAKSLTFYSWRDYGYWGQGTQVTVSS | high polyreactivity
18 | QVHLVESGGGIVQARGSLRLSCDASGFIFYDYAMGSYRLAPGKEWELVAAISKRGGSRYYADSVKGRFTISRDNAKNTVYLQMNSLKPEDTAVYYCATEVEPYAYGYWGQGTQVTVSS | high polyreactivity
19 | QVHLVESGGGLDQAGGSLRLSCAASGRIFPLYAMGWYRQAPGKERELVAAISSGGTTYYADSVKGRFTISRDNAKNTVYLQMHSLKPEDTAVYYCARRPAQRWGRFDYWGQGTQVTVSS | low polyreactivity
20 | QVHLVESGGGLIQAGGSLRISSAPSGSTFGTYVMGWSRQAPGKERELVAAISKRGGRTYYADSVKGRFTISRDNAKNTVYVPMTSLKAEDTAVYYCYAVYLYSGSSARYYWGQGTEVTVSS | high polyreactivity
21 | QVHLVESGGGLLQAGGSLRLSCAASGFTFFVNAMGWYRQAPGKERELVAAISIRSGGRTYYADSVKGRFTISRENAKNTVYLQMNSLKPEDTAVYYCAAESSRPEHTFHYYRFLFDYWGQGTQVTVSS | low polyreactivity

Row | Sequence | polyreactivity (PSR sort gate)
22 | QVHLVESGGGLVHAGGSLRLSSAASGFIFRYYAMGWYRQAPGKERELVAAITSLGGRTYYADSVNGRFTISRDYAKNTVYLQMNSLKPEDTAVFYCAKSTRGTYDMGFWGQVTQVTVSS | high polyreactivity
23 | QVHLVESGGGLVKAGGSLRISCAASGRTSVLYAMGWYRQAPGKDREFVAAITWNSGSTYYADSVKGRFTISRDNAKHTVYLQMNCLKPEDTAVYYCAADVYYEYDYWGQGTQVTVSS | low polyreactivity
24 | QVHLVESGGGLVQAAGILRLSSAASGFTFVPYAMGWYRQAPGKERELVAAISWRRGSTYYADSVKGRFTISRDNAKITVYLQMNSLKPEDSGVYYGDDQYFSRSGYWGQGTQVTVSS | high polyreactivity
25 | QVHLVESGGGLVQAGCCLRLRCAASGRTYDAYAKAWYRQAPGKERELVAAISSGDITNYADSVKGRFTISRDHAKNTVYLQMNSLKPEDTAVYYCAAKPRLRFFLWHEYSSRYDYWGQGTQVTVSS | high polyreactivity
26 | QVHLVESGGGLVQAGCSLRLSCAASGYIFVRNAMGWYRQAPGKERELVAAISGSGGSTYYADSVKGRFTISRDNAKNTVYLQMNSLKPEDTAVYYCASDPYHWRWGWRHDYWGQGTQVTVSS | low polyreactivity
27 | QVHLVESGGGLVQAGGILRLSCAASGRTFLWYAMGWSRQAPGKERELVAAISKRGGSTYYADSVKGRFTISRDKAKNTVYLQMNSLKPVDTAVYYCAAEKRYSSYDYWGQGTQVSVSS | high polyreactivity
28 | QVHLVESGGGLVQAGGILRLSCAASGRTFPGYAMGWYRQAPGKERELVAAITYTGGDTHYADSVKGRFTISRDNAKNTVYLQMNSLKPEDTAVYYCAAVYYRGIQSYDYWGQGTQVTVSS | low polyreactivity
29 | QVHLVESGGGLVQAGGILRLSCSAYGSIFDVNAKGWYRQSPGKERELVAAISDSGGSTYYADSVKGRFTISRDNAKNTVYLQMNSLKPEDTSVYYCNADWYWYNYYDFDYWGQGTQVTVSS | low polyreactivity
30 | QVHLVESGGGLVQAGGRLLLSCAASGLILRTYGMGWYRQAPRKERELVAVISSGGSTYYADSVNGRFTISRDNAKNTVYLQMNSLKPEDTAVYYCAVRSSWYEGDYWGQGTQVTVSS | low polyreactivity
31 | QVHLVESGGGLVQAGGSHRLSCAASGSTLRWNAMGWYRQAPGKERELVAAITYSGGSTYYADSVKGRFTISRDNAKNTVYFQMNSLKPEDTAVYYCAADSYRYRPGYGPVLYDYWGQGTQVTVSS | high polyreactivity
32 | QVHLVESGGGLVQAGGSIRLSCAASGGTFSRNAMGWYRQAPGKERELVAAINSSGVSTSYADSVKGRFTISRDNAKNNVYLQMNSLKPEDTAVYYCAAETSSAEVDYWGQGTQVTVSS | low polyreactivity
33 | QVHLVESGGGLVQAGGSLGISCAASGRILYGYAMGWNRQAPGKERELVAAITATYYADSVKGRFTISRDNAKNSVYLQMNSLNPEDTGVFYCNAYLCPIQPLSPPDPTFEGGYWGQGTQVTVSS | low polyreactivity
34 | QVHLVESGGGLVQAGGSLGLSCAASGFTFANNAMGWYRQAPGKERELVAAISSSGGSTYYADSVKVRFTISRDNAKKTVYLQMNSLKPEDTAVYYCAARRRGSYYGYGYWGQGTQVTVSS | high polyreactivity
35 | QVHLVESGGGLVQAGGSLRISCAASGRIFVGYVMGWYRQAPGKERELVAAITWRGGSTYADSVKGRFTISRDNAKNTVYLQMNSLIPEDTAVYYCAAKVSRTYPRIPYYYWGQGTQVTVSS | high polyreactivity
36 | QVHLVESGGGLVQAGGSLRISFAASGRTFPYYDMGWYRQAPGKERELVAAINSGGRTNYADSVKGRFTISRDNAKNTVYLQLNSLKPEDTAVYYCTKRGHPSRLGYYYWGLGTQVTVSS | low polyreactivity
37 | QVHLVESGGGLVQAGGSLRLICAASGSIFRWNAMGWYRQAPGKEREFVATISSGRNTKYADSVKGRFTISRDNAKNTVYLQMTSLKPQDTAVNDCAAAVKRALDYWGQGTQVTVSS | high polyreactivity
38 | QVHLVESGGGLVQAGGSLRLICAASGYTFAFYAMGCYRQAPGKERELVAAISAGGGRTYYADSVKGRFTISRDNANNTVYLQMNSLKPEDTAVYYCATDLIQGAAPFRYDYWGQGTQVTVSS | low polyreactivity
39 | QVHLVESGGGLVQAGGSLRLILAASGYIFSSNAMGWYRQAPGKEREFVADISSTGGSTYYADSVKGRFTISRDNAKNTVYCQMNILKPEDTGVYYCAAYIRRYFHYDYWGQGTQVTGSS | high polyreactivity
40 | QVHLVESGGGLVQAGGSLRLRCAASGSNLESYAMGWYRQAPGKEMELVADITYDGGITYYADSVKGRFTISRDNAKNTVYLQMNSLKPEDTAVYYCATEYRYWQSDYSTYFPYDYWGQGTQVTVSS | low polyreactivity
41 | QVHLVESGGGLVQAGGSLRLSCAASGFIFSGYALGWKRQAPGKERELVAAITSSGDGTYYADSVKGRFTISRDNAKNTVYLQMNSLTPEDTAVYYCNAGRARYFWRTDRFDYWGQGTQVTVSS | high polyreactivity
